The source of these data is US8410061.

The target in assay [1] is patched-1 of C3H10T1/2 cells (endogenous hedgehog receptor) (mouse (cell line C3H10T1/2 is stated to be mouse)) (UniProt Q61115). Description: cell-based or functional assay.
Assay [2] concerns the target Myc-tagged patched-1 on transiently transfected human embryonic kidney 293 (EBNA-293) cells. Description: FACS competition with Shh-Ig (5 nM) on 293 cells transfected with Myc-tagged patched-1.

patched-1 of C3H10T1/2 cells (endogenous hedgehog receptor) (mouse (cell line C3H10T1/2 is stated to be mouse)), sequence (Q61115 whole entry): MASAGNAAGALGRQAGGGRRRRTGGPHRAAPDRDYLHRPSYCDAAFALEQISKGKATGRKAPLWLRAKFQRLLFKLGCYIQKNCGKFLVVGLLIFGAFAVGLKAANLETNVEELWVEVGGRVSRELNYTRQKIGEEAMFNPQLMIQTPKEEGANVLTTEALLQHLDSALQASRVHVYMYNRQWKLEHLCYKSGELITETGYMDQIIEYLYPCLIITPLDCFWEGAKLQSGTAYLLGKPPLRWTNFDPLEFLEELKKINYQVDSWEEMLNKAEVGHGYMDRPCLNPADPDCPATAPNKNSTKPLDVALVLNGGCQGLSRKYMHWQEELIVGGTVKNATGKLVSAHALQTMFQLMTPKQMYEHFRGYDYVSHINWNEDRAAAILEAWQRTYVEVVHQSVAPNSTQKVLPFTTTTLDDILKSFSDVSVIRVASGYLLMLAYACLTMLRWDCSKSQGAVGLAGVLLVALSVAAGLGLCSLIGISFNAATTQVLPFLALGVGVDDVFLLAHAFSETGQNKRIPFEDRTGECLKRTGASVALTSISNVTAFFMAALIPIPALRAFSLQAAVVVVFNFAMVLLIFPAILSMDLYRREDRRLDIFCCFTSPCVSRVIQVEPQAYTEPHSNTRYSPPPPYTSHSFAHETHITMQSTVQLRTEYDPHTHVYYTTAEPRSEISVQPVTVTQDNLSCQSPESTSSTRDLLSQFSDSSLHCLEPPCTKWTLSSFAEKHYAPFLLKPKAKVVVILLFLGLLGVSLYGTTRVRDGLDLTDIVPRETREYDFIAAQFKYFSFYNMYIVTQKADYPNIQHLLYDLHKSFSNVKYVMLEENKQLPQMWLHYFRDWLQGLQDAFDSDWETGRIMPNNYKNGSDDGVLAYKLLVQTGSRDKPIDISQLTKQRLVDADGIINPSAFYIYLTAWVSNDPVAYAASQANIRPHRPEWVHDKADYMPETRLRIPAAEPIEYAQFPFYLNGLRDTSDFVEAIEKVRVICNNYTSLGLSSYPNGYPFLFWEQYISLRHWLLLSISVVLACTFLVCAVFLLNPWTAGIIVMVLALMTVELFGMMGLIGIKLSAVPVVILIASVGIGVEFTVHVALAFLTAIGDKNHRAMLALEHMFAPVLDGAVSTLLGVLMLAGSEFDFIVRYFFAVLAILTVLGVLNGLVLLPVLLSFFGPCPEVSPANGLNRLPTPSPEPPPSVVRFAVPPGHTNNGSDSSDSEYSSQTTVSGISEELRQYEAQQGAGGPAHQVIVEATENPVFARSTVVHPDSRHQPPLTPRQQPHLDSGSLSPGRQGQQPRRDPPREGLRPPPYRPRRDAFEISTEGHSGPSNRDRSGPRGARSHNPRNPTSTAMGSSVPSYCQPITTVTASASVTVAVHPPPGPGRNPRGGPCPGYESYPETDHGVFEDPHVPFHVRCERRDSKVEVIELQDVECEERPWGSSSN
Myc-tagged patched-1 on transiently transfected human embryonic kidney 293 (EBNA-293) cells, sequence (Q61115 whole entry): as above

For the substance “Shh (N-5), Sonic hedgehog variant lacking residues CGPGR from the N-terminus (from UniProt Q15465 29-197) (ligand)”, the block of AP activity induced by mature Shh in C3H10T1/2 cells, IC50 in assay [1] amounted to 80 nM.
On the same count and under the same terms, the figure for “Shh (N-9/C-3), Sonic hedgehog variant lacking … from the N-terminus and SGG from the C-terminus (from UniProt Q15465 33-194) (ligand)” is 80 nM.
The IC50 is the midpoint of a concentration-inhibition curve. A low value points to higher potency. The substance “Shh (C1S), Sonic hedgehog N-terminal domain with the N-terminal cysteine replaced by serine (from UniProt Q15465 25-197) (ligand)” registered an IC50 in assay [2] of 1 nM. The same substance had a block of AP induction by human Shh in C3H10T1/2 cells, IC50 in assay [1] of 500000 nM.
As to “human mature Sonic hedgehog N-terminal domain (from UniProt Q15465 24-197) (ligand)”, the IC50 in assay [2] was determined as 3.5 nM. This counts as single-digit nanomolar.
Consider “Shh (N-10), Sonic hedgehog variant lacking the first 10 N-terminal amino acids (from UniProt Q15465 34-197) (ligand)”, for which the block of AP induction by mature Shh (2.5 ug/ml) in C3H10T1/2 cells, IC50 in assay [1] turned out to be 250 nM.
